Experimental data as given in patent US20240124560A1.

Key:
Test in all cases: cell-based or functional assay
[1] = molecular target: HIV-1 Env of pseudovirus NIH-014_6244.13.B5.4567 (HIV-1)
[2] = molecular target: HIV-1 Env of pseudovirus NIH-094_3817.v2.c59 (HIV-1)
[3] = molecular target: HIV-1 Env of pseudovirus NIH-078_BJOX015000.11.5 (HIV-1)
[4] = molecular target: HIV-1 Env of NIH-060_Q769ENVd22 (HIV-1)
[5] = molecular target: HIV-1 Env of pseudovirus NIH-011_1056.10.TA11.1826 (HIV-1)
[6] = molecular target: HIV-1 Env of NIH-032_HIV-16845.2.22 (HIV-1)
[7] = molecular target: HIV-1 Env of pseudovirus NIH-061_Q259ENVd2.17 (HIV-1)
[8] = molecular target: HIV-1 Env of NIH-039_Ce2060 G9 (HIV-1)
[9] = molecular target: HIV-1 Env of NIH-080_BJOX025000.01.1 (HIV-1)
[10] = molecular target: HIV-1 Env of pseudovirus NIH-015_62357.14.D3.4589 (HIV-1)
[11] = molecular target: HIV-1 Env of NIH-015_62357.14.D3.4589 (HIV-1)
[12] = molecular target: HIV-1 Env of NHI-028_CAP210.E8 (HIV-1)
[13] = molecular target: HIV-1 Env of isolate NIH-091_231965.c01 (HIV-1)
[14] = molecular target: HIV-1 Env of pseudovirus NIH-057_MS208.A1 (HIV-1)
[15] = molecular target: HIV-1 Env of NAC_REJO.67 (HIV-1)
[16] = molecular target: HIV-1 Env of pseudovirus NIH-042_ZM246F.D5 (HIV-1)
[17] = molecular target: HIV-1 Env of pseudovirus NIH-034_Ce0393 C3 (HIV-1)
[18] = molecular target: HIV-1 Env of NIH-076_CNE5 (HIV-1)
[19] = molecular target: HIV-1 Env of NAC_89.6 (HIV-1)
[20] = molecular target: HIV-1 Env of NIH-003_SC422661.8 (HIV-1)
[21] = molecular target: HIV-1 Env of NIH-052_CNE30 (HIV-1)
[22] = molecular target: HIV-1 Env of NIH-017_Du156.12 (HIV-1)
[23] = molecular target: HIV-1 Env of pseudovirus NAC_MN (HIV-1) (UniProt P05877)
[24] = molecular target: HIV-1 Env of isolate NIH-090_A07412M1.vrc12 (HIV-1)
[25] = molecular target: HIV-1 Env of pseudovirus NIH-070_R2184.c04 (HIV-1)
[26] = molecular target: HIV-1 Env of NIH-063_0330.v4.c3 (HIV-1)
[27] = molecular target: envelope protein of control pseudovirus NAC_VSV
[28] = molecular target: HIV-1 Env of pseudovirus NIH-081_BJOX028000.10.3 (HIV-1)
[29] = molecular target: HIV-1 Env of pseudovirus NIH-079_BJOX010000.06.2 (HIV-1)
[30] = molecular target: HIV-1 Env of pseudovirus NIH-080_BJOX025000.01.1 (HIV-1)
[31] = molecular target: HIV-1 Env of pseudovirus NIH-097_6811.v7.c18 (HIV-1)
[32] = molecular target: HIV-1 Env of pseudovirus NIH-059_Q461ENVe2 (HIV-1)
[33] = molecular target: HIV-1 Env of pseudovirus NIH-036_Ce2010 F5 (HIV-1)
[34] = molecular target: HIV-1 Env of NIH-114_T257.31 (HIV-1)
[35] = molecular target: HIV-1 Env of pseudovirus NIH-019_Du422.1 (HIV-1)
[36] = molecular target: HIV-1 Env of NAC_JRFL (HIV-1)
[37] = molecular target: HIV-1 Env of pseudovirus NIH-119_T211.9 (HIV-1)
[38] = molecular target: HIV-1 Env of pseudovirus NIH-086_X2131 C1 B5 (clade G) (HIV-1)
[39] = molecular target: HIV-1 Env of pseudovirus NAC_KNH1144 (HIV-1)
[40] = molecular target: HIV-1 Env of pseudovirus NAC_WITO.33 (HIV-1)
[41] = molecular target: HIV-1 Env of NIH-081_BJOX028000.10.3 (HIV-1)
[42] = molecular target: HIV-1 Env of NIH-102_6545.v4.c1 (HIV-1)
[43] = molecular target: HIV-1 Env of NIH-009_1006.11.C3.1601 (HIV-1)
[44] = molecular target: HIV-1 Env of pseudovirus NIH-021_ZM214M.PL15 (HIV-1)
[45] = molecular target: HIV-1 Env of NAC_IAVIC22 (HIV-1)

## 4E10 (antibody)
[1]
  neutralization IC50: 0.077 µg/mL
[2]
  neutralization IC50: 0.417 µg/mL
[3]
  neutralization IC50: 0.165 µg/mL
[4]
  IC80 neutralization: 6.57 µg/mL
[5]
  neutralization IC50: 0.688 µg/mL
[6]
  IC80 neutralization: 0.653 µg/mL
[7]
  neutralization IC50: 7.12 µg/mL
[8]
  IC80 neutralization: 5.1 µg/mL
[9]
  IC80 neutralization: 1.59 µg/mL
[10]
  neutralization IC50: 2.87 µg/mL
[11]
  IC80 neutralization: 11.6 µg/mL
[12]
  IC80 neutralization: 3.53 µg/mL
[13]
  IC80 (µg/ml), TZM-bl pseudovirus neutralization: > 50 µg/mL
[14]
  neutralization IC50: 0.678 µg/mL
[15]
  IC80 neutralization: 8.62 µg/mL
[16]
  neutralization IC50: 1.68 µg/mL
[17]
  neutralization IC50: 0.606 µg/mL
[18]
  IC80 neutralization: 5.9 µg/mL
[19]
  IC80 neutralization: 10.9 µg/mL
[20]
  IC80 neutralization: 11.1 µg/mL
[21]
  IC80 neutralization: 16.6 µg/mL
[22]
  IC80 neutralization: 0.447 µg/mL
[23]
  neutralization IC50: 0.005 µg/mL
[24]
  IC80 (µg/ml), TZM-bl pseudovirus neutralization: 10.4 µg/mL
[25]
  neutralization IC50: 0.223 µg/mL
[26]
  IC80 neutralization: 4.17 µg/mL
[27]
  IC50 (µg/ml), TZM-bl cell neutralization assay, control pseudovirus: > 50 µg/mL
  IC80 (µg/ml), TZM-bl pseudovirus neutralization: > 50 µg/mL
[28]
  neutralization IC50: 0.45 µg/mL
[29]
  neutralization IC50: 0.438 µg/mL
[30]
  neutralization IC50: 0.377 µg/mL
[31]
  neutralization IC50: 2.74 µg/mL
[32]
  neutralization IC50: 2.33 µg/mL
[33]
  neutralization IC50: 14.4 µg/mL
[34]
  IC80 neutralization: 4.71 µg/mL
[35]
  neutralization IC50: 1.42 µg/mL
[36]
  IC80 neutralization: > 50 µg/mL
[37]
  neutralization IC50: 1.2 µg/mL
[38]
  IC50 (µg/ml), TZM-bl cell neutralization assay, pseudovirus: 0.194 µg/mL
[39]
  neutralization IC50: 11.5 µg/mL
[40]
  neutralization IC50: 0.435 µg/mL
[41]
  IC80 neutralization: 1.88 µg/mL
[42]
  IC80 neutralization: 13.3 µg/mL
[43]
  IC80 neutralization: 22.7 µg/mL
[44]
  neutralization IC50: 5.31 µg/mL
[45]
  IC80 neutralization: 6.11 µg/mL

## PGZL1 (antibody)
[1]
  neutralization IC50: 1.31 µg/mL
[2]
  neutralization IC50: 20.1 µg/mL
[3]
  neutralization IC50: 2.59 µg/mL
[4]
  IC80 neutralization: > 50 µg/mL
[5]
  neutralization IC50: 3.72 µg/mL
[6]
  IC80 neutralization: 2.47 µg/mL
[7]
  neutralization IC50: > 50 µg/mL
[8]
  IC80 neutralization: > 50 µg/mL
[9]
  IC80 neutralization: 29.3 µg/mL
[10]
  neutralization IC50: 27.2 µg/mL
[11]
  IC80 neutralization: > 50 µg/mL
[12]
  IC80 neutralization: > 50 µg/mL
[13]
  IC80 (µg/ml), TZM-bl pseudovirus neutralization: > 50 µg/mL
[14]
  neutralization IC50: 10.1 µg/mL
[15]
  IC80 neutralization: 40.2 µg/mL
[16]
  neutralization IC50: 19.9 µg/mL
[17]
  neutralization IC50: 13.5 µg/mL
[18]
  IC80 neutralization: > 50 µg/mL
[19]
  IC80 neutralization: > 50 µg/mL
[20]
  IC80 neutralization: > 50 µg/mL
[21]
  IC80 neutralization: > 50 µg/mL
[22]
  IC80 neutralization: 2.5 µg/mL
[23]
  neutralization IC50: 0.023 µg/mL
[24]
  IC80 (µg/ml), TZM-bl pseudovirus neutralization: > 50 µg/mL
[25]
  neutralization IC50: 12.9 µg/mL
[26]
  IC80 neutralization: > 50 µg/mL
[27]
  IC50 (µg/ml), TZM-bl cell neutralization assay, control pseudovirus: > 50 µg/mL
  IC80 (µg/ml), TZM-bl pseudovirus neutralization: > 50 µg/mL
[28]
  neutralization IC50: 5.16 µg/mL
[29]
  neutralization IC50: 1.66 µg/mL
[30]
  neutralization IC50: 7.13 µg/mL
[31]
  neutralization IC50: > 50 µg/mL
[32]
  neutralization IC50: 20.2 µg/mL
[33]
  neutralization IC50: > 50 µg/mL
[34]
  IC80 neutralization: > 50 µg/mL
[35]
  neutralization IC50: 7.51 µg/mL
[36]
  IC80 neutralization: > 50 µg/mL
[37]
  neutralization IC50: 13.2 µg/mL
[38]
  IC50 (µg/ml), TZM-bl cell neutralization assay, pseudovirus: 0.885 µg/mL
[39]
  neutralization IC50: > 50 µg/mL
[40]
  neutralization IC50: 3.56 µg/mL
[41]
  IC80 neutralization: 20.9 µg/mL
[42]
  IC80 neutralization: > 50 µg/mL
[43]
  IC80 neutralization: > 50 µg/mL
[44]
  neutralization IC50: 28.7 µg/mL
[45]
  IC80 neutralization: > 50 µg/mL

## VRC01 (antibody)
[1]
  neutralization IC50: 0.045 µg/mL
[2]
  neutralization IC50: > 50 µg/mL
[3]
  neutralization IC50: 0.06 µg/mL
[4]
  IC80 neutralization: 0.092 µg/mL
[5]
  neutralization IC50: 0.372 µg/mL
[6]
  IC80 neutralization: 4.25 µg/mL
[7]
  neutralization IC50: 0.114 µg/mL
[8]
  IC80 neutralization: 0.45 µg/mL
[9]
  IC80 neutralization: 24.8 µg/mL
[10]
  neutralization IC50: 1.74 µg/mL
[11]
  IC80 neutralization: 6.95 µg/mL
[12]
  IC80 neutralization: > 50 µg/mL
[13]
  IC80 (µg/ml), TZM-bl pseudovirus neutralization: 0.743 µg/mL
[14]
  neutralization IC50: 0.063 µg/mL
[15]
  IC80 neutralization: 0.414 µg/mL
[16]
  neutralization IC50: 10.7 µg/mL
[17]
  neutralization IC50: 0.37 µg/mL
[18]
  IC80 neutralization: 0.238 µg/mL
[19]
  IC80 neutralization: 3.3 µg/mL
[20]
  IC80 neutralization: 0.481 µg/mL
[21]
  IC80 neutralization: 2.38 µg/mL
[22]
  IC80 neutralization: 0.23 µg/mL
[23]
  neutralization IC50: 0.01 µg/mL
[24]
  IC80 (µg/ml), TZM-bl pseudovirus neutralization: 0.216 µg/mL
[25]
  neutralization IC50: 0.103 µg/mL
[26]
  IC80 neutralization: 0.13 µg/mL
[27]
  IC50 (µg/ml), TZM-bl cell neutralization assay, control pseudovirus: > 50 µg/mL
  IC80 (µg/ml), TZM-bl pseudovirus neutralization: > 50 µg/mL
[28]
  neutralization IC50: 0.141 µg/mL
[29]
  neutralization IC50: 1.77 µg/mL
[30]
  neutralization IC50: 6.04 µg/mL
[31]
  neutralization IC50: 0.14 µg/mL
[32]
  neutralization IC50: 0.195 µg/mL
[33]
  neutralization IC50: 0.153 µg/mL
[34]
  IC80 neutralization: 6.57 µg/mL
[35]
  neutralization IC50: > 50 µg/mL
[36]
  IC80 neutralization: 0.741 µg/mL
[37]
  neutralization IC50: 12.8 µg/mL
[38]
  IC50 (µg/ml), TZM-bl cell neutralization assay, pseudovirus: 0.073 µg/mL
[39]
  neutralization IC50: 0.134 µg/mL
[40]
  neutralization IC50: 0.055 µg/mL
[41]
  IC80 neutralization: 0.573 µg/mL
[42]
  IC80 neutralization: > 50 µg/mL
[43]
  IC80 neutralization: 0.571 µg/mL
[44]
  neutralization IC50: 0.612 µg/mL
[45]
  IC80 neutralization: 1.37 µg/mL
